The record followed here is paper PMC10896696 (The Journal of Cell Biology, 2024).

The experiment addresses MBP-tag-fused HER2 intracellular domain (ICD, 712 aa-1255 aa) (human, UniProt P04626 712-1255). As to the kind of experiment: SPR.

B1: MBP-tag-fused intracellular domain (ICD) of WT TβRI (148 aa-503 aa) (domain or fragment, human, UniProt P36897 148-503, looked up)
chain: CHNRTVIHHRVPNEEDPSLDRPFISEGTTLKDLIYDMTTSGSGSGLPLLVQRTIARTIVLQESIGKGRFGEVWRGKWRGEEVAVKIFSSREERSWFREAEIYQTVMLRHENILGFIAADNKDNGTWTQLWLVSDYHEHGSLFDYLNRYTVTVEGMIKLALSTASGLAHLHMEIVGTQGKPAIAHRDLKSKNILVKKNGTCCIADLGLAVRHDSATDTIDIAPNHRVGTKRYMAPEVLDDSINMKHFESFKRADIYAMGLVFWEIARRCSIGGIHEDYQLPYYDLVPSDPSVEEMRKVVCEQKLRPNIPNRWQSCEALRVMAKIMRECWYANGAARLTALRIKKTLSQLSQQEGIKM
With B1, the Kd was determined as 4.24 nM.

B2: MBP-tag-fused intracellular domain (ICD) of activated (GGD) TβRI (148 aa-503 aa) (domain or fragment, human, UniProt P36897 148-503, looked up)
chain: CHNRTVIHHRVPNEEDPSLDRPFISEGTTLKDLIYDMTTSGSGSGGGLLVQRTIARDIVLQESIGKGRFGEVWRGKWRGEEVAVKIFSSREERSWFREAEIYQTVMLRHENILGFIAADNKDNGTWTQLWLVSDYHEHGSLFDYLNRYTVTVEGMIKLALSTASGLAHLHMEIVGTQGKPAIAHRDLKSKNILVKKNGTCCIADLGLAVRHDSATDTIDIAPNHRVGTKRYMAPEVLDDSINMKHFESFKRADIYAMGLVFWEIARRCSIGGIHEDYQLPYYDLVPSDPSVEEMRKVVCEQKLRPNIPNRWQSCEALRVMAKIMRECWYANGAARLTALRIKKTLSQLSQQEGIKM
B2 had a Kd of 2.68 nM.
